The results in this text go back to patent US20210238283A1 (Y BIOLOGICS, published 2021).

Test [1] deals with T1, recombinant monkey LAG-3 fused with mouse Fc (MrhLAG-3-mFc) (monkey).
T1 construct: also called monkey LAG-3 antigen
As to the kind of experiment: Octet biolayer interferometry, 1:1 global fit. As for the experimental part: (§1) After stabilization for 10 minutes in a buffer (#18-1042, Fortebio Inc.), immobilized antigen or antibody was washed out for 5 minutes with the buffer. The antibody or antigen desired for binding was prepared at different concentrations (0.94-60 nM) in a 96-well plate (#655209, Greiner Bio-One, USA) and subjected to the association reaction for 10 minutes followed by dissociation reaction for 10 minutes or 30 minutes.
(BLI is a label-free optical method that tracks binding on a fibre tip over time.)

For test [2], the target named is T2, recombinant human LAG-3 extracellular domain fused with mouse Fc (hLAG-3-mFc) (human, UniProt P18627 29-450).
T2 construct: range 29-450; Made in HEK293F cells; also called human LAG-3 antigen; wild-type (WT) LAG-3; not shown: mouse Fc (mFc) at the carboxy terminal
T2 sequence (looked up): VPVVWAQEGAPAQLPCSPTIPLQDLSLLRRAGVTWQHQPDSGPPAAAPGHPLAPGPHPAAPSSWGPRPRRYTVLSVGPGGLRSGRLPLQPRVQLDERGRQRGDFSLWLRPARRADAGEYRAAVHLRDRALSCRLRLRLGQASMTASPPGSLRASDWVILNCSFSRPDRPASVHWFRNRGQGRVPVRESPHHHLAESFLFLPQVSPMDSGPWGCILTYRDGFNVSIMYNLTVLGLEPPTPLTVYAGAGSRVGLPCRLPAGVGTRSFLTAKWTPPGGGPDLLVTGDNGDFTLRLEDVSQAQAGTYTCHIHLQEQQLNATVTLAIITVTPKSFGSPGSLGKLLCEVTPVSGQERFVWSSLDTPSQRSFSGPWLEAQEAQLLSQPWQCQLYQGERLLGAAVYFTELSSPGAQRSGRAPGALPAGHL
Briefly: Octet biolayer interferometry, 1:1 global fit. The protocol:
as §1

The target in test [3] is T3, recombinant mouse LAG-3 fused with mouse Fc (mLAG-Fc) (mouse, UniProt Q61790 24-442, limits assumed).
T3 construct: also called mouse LAG-3 antigen; not shown: mouse Fc (mFc) at the carboxy terminal
T3 sequence (looked up): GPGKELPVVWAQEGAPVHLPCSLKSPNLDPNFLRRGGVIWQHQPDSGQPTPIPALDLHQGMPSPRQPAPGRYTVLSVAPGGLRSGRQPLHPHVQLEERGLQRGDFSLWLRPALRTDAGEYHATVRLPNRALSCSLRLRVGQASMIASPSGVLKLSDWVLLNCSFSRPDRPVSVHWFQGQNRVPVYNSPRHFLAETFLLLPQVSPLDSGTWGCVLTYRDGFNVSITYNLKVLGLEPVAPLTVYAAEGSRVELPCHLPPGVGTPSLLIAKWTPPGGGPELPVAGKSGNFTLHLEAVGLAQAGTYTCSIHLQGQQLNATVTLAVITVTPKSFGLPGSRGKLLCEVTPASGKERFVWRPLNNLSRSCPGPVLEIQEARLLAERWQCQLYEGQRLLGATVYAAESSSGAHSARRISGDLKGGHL
Briefly: BLI (Octet QKe).

Test [4] addresses T4, monkey (Rhesus monkey) LAG-3 overexpressed on HEK293E cells (Rhesus monkey, UniProt A0A5F8A874 23-533).
T4 construct: whole, on cells; also called HEK293E-MrhLAG3; MrhLAG3 (Rhesus Monkey)
T4 sequence: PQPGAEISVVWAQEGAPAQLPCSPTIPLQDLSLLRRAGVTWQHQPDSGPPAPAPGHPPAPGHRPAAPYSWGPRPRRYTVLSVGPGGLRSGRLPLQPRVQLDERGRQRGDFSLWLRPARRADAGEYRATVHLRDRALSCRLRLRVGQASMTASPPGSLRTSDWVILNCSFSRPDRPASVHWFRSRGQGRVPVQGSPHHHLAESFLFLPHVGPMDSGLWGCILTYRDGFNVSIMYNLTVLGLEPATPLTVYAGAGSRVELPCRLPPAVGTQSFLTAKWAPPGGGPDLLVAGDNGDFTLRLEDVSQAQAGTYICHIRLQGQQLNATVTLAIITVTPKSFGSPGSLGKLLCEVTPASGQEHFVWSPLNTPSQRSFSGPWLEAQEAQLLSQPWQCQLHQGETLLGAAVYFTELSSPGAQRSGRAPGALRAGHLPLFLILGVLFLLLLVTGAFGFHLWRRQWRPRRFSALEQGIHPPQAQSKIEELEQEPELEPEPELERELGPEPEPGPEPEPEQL
As to the kind of experiment: flow cytometry on HEK293E-MrhLAG3 cells, MFI, fitted curve. As for the experimental part: (§2) After that, the cells were washed three times with PBS containing 2% FBS and then subjected to the reaction for 30 minutes at 4° C. with anti-human IgG antibody (#FI-3000, Vectorlabs) linked with FITC fluorescent. The cells were washed by the same washing process as above followed by suspension in 0.2 ml PBS containing 2% FBS. The cells were then analyzed by FACSCanto II flow cytometer.
In general terms: Flow cytometry measures light scatter and fluorescence of single cells or particles in a stream.

Test [5] addresses T1, recombinant monkey LAG-3 fused with …. As to the kind of experiment: BLI (Octet QKe), 1:1 global fit. The protocol:
as §1

In test [6] the target is T2, recombinant human LAG-3 extracellular …. As to the kind of experiment: BLI (Octet QKe), 1:1 global fit. The protocol: as §1
Test [7] concerns the target T5, human LAG-3 overexpressed on cells (human, UniProt P18627 23-525).
T5 construct: whole, on cells; also called HEK293E-hLAG3; hLAG3 (Human)
T5 sequence (looked up): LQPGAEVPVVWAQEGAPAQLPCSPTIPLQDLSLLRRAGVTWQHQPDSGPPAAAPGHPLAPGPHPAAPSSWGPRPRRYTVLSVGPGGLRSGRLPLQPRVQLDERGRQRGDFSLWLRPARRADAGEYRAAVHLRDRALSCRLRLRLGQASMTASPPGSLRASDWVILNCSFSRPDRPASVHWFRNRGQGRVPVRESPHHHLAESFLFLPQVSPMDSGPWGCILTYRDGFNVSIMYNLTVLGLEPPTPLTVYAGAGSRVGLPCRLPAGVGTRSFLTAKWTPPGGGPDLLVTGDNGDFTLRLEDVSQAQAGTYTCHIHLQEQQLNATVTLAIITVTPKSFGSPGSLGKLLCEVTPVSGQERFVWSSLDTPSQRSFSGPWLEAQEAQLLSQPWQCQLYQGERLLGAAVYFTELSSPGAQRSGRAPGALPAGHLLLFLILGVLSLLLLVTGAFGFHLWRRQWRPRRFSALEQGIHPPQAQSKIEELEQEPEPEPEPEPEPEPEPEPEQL
As to the kind of experiment: flow cytometry on HEK293E-hLAG3 cells, MFI, fitted curve. The protocol:
as §2

Test [8] addresses T6, mouse LAG-3 overexpressed on HEK293E cells (mouse, UniProt Q61790 24-521).
T6 construct: whole, on cells; also called HEK293E-mLAG3; mLAG3 (Mouse)
T6 sequence (looked up): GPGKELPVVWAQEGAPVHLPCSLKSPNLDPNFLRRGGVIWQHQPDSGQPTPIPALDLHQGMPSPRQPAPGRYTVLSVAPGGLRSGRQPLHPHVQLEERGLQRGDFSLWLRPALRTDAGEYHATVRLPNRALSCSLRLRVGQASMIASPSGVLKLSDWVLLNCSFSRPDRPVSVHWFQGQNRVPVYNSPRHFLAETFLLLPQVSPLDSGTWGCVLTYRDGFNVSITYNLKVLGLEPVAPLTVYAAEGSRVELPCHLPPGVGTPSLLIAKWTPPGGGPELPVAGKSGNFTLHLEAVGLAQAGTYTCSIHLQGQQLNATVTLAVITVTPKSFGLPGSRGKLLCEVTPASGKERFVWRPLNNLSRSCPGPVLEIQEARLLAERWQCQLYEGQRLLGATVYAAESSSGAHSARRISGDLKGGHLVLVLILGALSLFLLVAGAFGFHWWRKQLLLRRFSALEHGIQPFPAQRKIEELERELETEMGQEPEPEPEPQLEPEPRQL
Briefly: flow cytometry on HEK293E-mLAG3 cells, MFI. As for the experimental part: as §2

Test [9] addresses T5, human LAG-3 overexpressed on cells. As to the kind of experiment: cell-based or functional assay.

B1: LAG3-1E09_FR_1E05 (antibody, V domains shown)
VH: EVQLVESGGGLVQPGGSLRLSCAASGFSFSDHYMNWVRQAPGKGLEWVAYIDTSATYIYYADSVKGRFTISRDNAKNSLYLQMNSLRAEDTAVYYCARDNWGSLDYWGQGTLVTVSS
VL: DIQMTQSPSSLSASVGDRVTITCRASQSISSWLAWYQHKPGKAPKLLIYDASNLETGAPSRFSGSGSGTDFTFTIYSLQPEDVATYYCQQYDTVPPTFGPGTKVDIK
notes: Tested as full IgG
A word on the koff: it is the rate constant with which the complex falls apart. By kon is commonly meant the rate constant with which the complex forms. Broadly, the EC50 is the concentration giving half of the maximal effect. The Kd is a measure of binding affinity in units of concentration. On to B1, for which the koff in [1] is 3.7e-05 s⁻¹; in [2], 1.03e-05 s⁻¹. The kon stood at 81100 M⁻¹ s⁻¹ in test [1] and 114000 M⁻¹ s⁻¹ in test [2]. Also, the binding result in [3] is “no binding”; in test [8], “no binding (tested: Log10[Ab] about 0.8, µg/ml)”. In addition, the 50% effective concentration (EC50) in test [4] turned out to be 0.301 µg/mL; in test [7], 0.0926 µg/mL. The Kd in [5] amounted to 0.456 nM; in test [6] it was 0.0906 nM. Also, the “EC50 (µg/ml), LAG3/MHC class II Blockade bioassay” value in test [9] worked out at 0.0938 µg/mL.
